Literature values as cited in publication PMC2446434.

Molecular target: CD200 (Mus musculus) (UniProt O54901)
Assay: SPR

Sequence of UniProt O54901 (O54901 31-232): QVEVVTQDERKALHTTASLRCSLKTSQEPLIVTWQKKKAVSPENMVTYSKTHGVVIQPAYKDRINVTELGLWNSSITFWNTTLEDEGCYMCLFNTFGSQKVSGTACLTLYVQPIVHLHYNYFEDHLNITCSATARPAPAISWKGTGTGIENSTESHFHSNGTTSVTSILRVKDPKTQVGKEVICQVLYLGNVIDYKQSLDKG

Kd: 4 µM
Substance: CD200R (from UniProt Q9ES57)
